In the supplement of paper PMC9112550, “Optimization of the antimicrobial peptide Bac7 by deep mutational scanning” (BMC Biology, 2022):

Test system: Escherichia coli TOP10
Assay: shrunken log2 fold change of peptide-encoding DNA abundance (4.5 h post-induction vs induction); higher = less antimicrobial activity (less host growth inhibition)
Conditions: time post-induction: 4.5 h; library: site-saturation at positions 5, 18, 19, 20
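Further: peptides expressed intracellularly from a pBAD plasmid library in pooled LB shake-flask culture, induced with 0.3% L-arabinose, DNA abundance read by NGS, three biological replicates, DESeq2 with apeglm shrinkage.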

Sequence | shrunken log2 fold change
RRIRFRPPRLPRPRPRPYLTPRP | -0.875
RRIRFRPPRLPRPRPRPTCYPRP | -0.23
RRIRCRPPRLPRPRPRPLELPRP | 0.172
RRIRWRPPRLPRPRPRPCPPPRP | -0.463
RRIRVRPPRLPRPRPRPTDMPRP | -0.234
RRIRTRPPRLPRPRPRPRWKPRP | 0.0709
RRIRKRPPRLPRPRPRPTPCPRP | 0.692
RRIRNRPPRLPRPRPRPSWYPRP | -0.81
RRIRFRPPRLPRPRPRPTNRPRP | -0.346
RRIRPRPPRLPRPRPRPCVHPRP | -0.434
RRIRGRPPRLPRPRPRPMCAPRP | 1.88
RRIRRRPPRLPRPRPRPPFIPRP | 0.299
RRIRGRPPRLPRPRPRPLAYPRP | 0.721
RRIRKRPPRLPRPRPRPRFPPRP | 0.647
RRIRWRPPRLPRPRPRPYWPPRP | -0.022
RRIRVRPPRLPRPRPRPNYPPRP | -0.515
RRIRTRPPRLPRPRPRPKPDPRP | 0.214
RRIRHRPPRLPRPRPRPWIMPRP | -0.597
RRIRWRPPRLPRPRPRPIFMPRP | -0.0259
RRIRHRPPRLPRPRPRPQNPPRP | -0.0256
RRIRRRPPRLPRPRPRPLSTPRP | 0.021
RRIRDRPPRLPRPRPRPAFYPRP | -0.305
RRIRNRPPRLPRPRPRPHCVPRP | 0.0245
RRIRFRPPRLPRPRPRPNKVPRP | -0.92
RRIRHRPPRLPRPRPRPEPIPRP | 0.021

Sequence | shrunken log2 fold change
RRIRQRPPRLPRPRPRPGLNPRP | -0.129
RRIRVRPPRLPRPRPRPVVQPRP | -0.039
RRIRMRPPRLPRPRPRPWIPPRP | -0.205
RRIRRRPPRLPRPRPRPDHEPRP | 0.152
RRIRIRPPRLPRPRPRPGQCPRP | -0.13
RRIRWRPPRLPRPRPRPPCFPRP | 0.108
RRIRERPPRLPRPRPRPYTDPRP | -0.956
RRIRNRPPRLPRPRPRPCSRPRP | -0.0877
RRIRWRPPRLPRPRPRPYFVPRP | -0.309
RRIRDRPPRLPRPRPRPISKPRP | 0.002
RRIRKRPPRLPRPRPRPWWLPRP | 0.252
RRIRHRPPRLPRPRPRPMYVPRP | 0.0136
RRIRGRPPRLPRPRPRPWEFPRP | -0.0208
RRIRDRPPRLPRPRPRPTGTPRP | 0.0829
RRIRLRPPRLPRPRPRPRRVPRP | 0.0457
RRIRLRPPRLPRPRPRPQVCPRP | -0.00713
RRIRSRPPRLPRPRPRPFQIPRP | 0.0213
RRIRQRPPRLPRPRPRPYASPRP | -0.00547
RRIRQRPPRLPRPRPRPRLHPRP | 0.0368
RRIRCRPPRLPRPRPRPDVQPRP | 0.0161
RRIRTRPPRLPRPRPRPDGEPRP | 0.0799
RRIRFRPPRLPRPRPRPSGWPRP | 0.187
RRIRRRPPRLPRPRPRPLFAPRP | 0.755
RRIRPRPPRLPRPRPRPAIPPRP | -0.0146
RRIRPRPPRLPRPRPRPGNYPRP | -0.36

Sequence | shrunken log2 fold change
RRIRKRPPRLPRPRPRPFDFPRP | 0.0615
RRIRYRPPRLPRPRPRPEARPRP | 0.105
RRIRSRPPRLPRPRPRPCPRPRP | 0.056
RRIRWRPPRLPRPRPRPKVEPRP | -0.0433
RRIRLRPPRLPRPRPRPDYVPRP | -0.432
RRIRYRPPRLPRPRPRPTAQPRP | 0.0778
RRIRMRPPRLPRPRPRPPLRPRP | 0.852
RRIRQRPPRLPRPRPRPTDAPRP | 0.0862
RRIRYRPPRLPRPRPRPANKPRP | -0.278
RRIRCRPPRLPRPRPRPANTPRP | -0.265
RRIRIRPPRLPRPRPRPMWSPRP | 0.045
RRIRFRPPRLPRPRPRPAQCPRP | 0.0148
RRIRNRPPRLPRPRPRPAPQPRP | 0.182
RRIRVRPPRLPRPRPRPWLTPRP | -0.147
RRIRWRPPRLPRPRPRPDVYPRP | 0.00123
RRIRRRPPRLPRPRPRPYDMPRP | -0.532
RRIRTRPPRLPRPRPRPMHMPRP | -0.202
RRIRDRPPRLPRPRPRPQELPRP | -0.238
RRIRVRPPRLPRPRPRPRSQPRP | 0.25
RRIRPRPPRLPRPRPRPRQLPRP | 0.247
RRIRIRPPRLPRPRPRPACTPRP | 0.242
RRIRLRPPRLPRPRPRPNNLPRP | -0.177
RRIRCRPPRLPRPRPRPSLMPRP | -0.287
RRIRNRPPRLPRPRPRPGNHPRP | -0.265
RRIRERPPRLPRPRPRPIVEPRP | 0.0517

Sequence | shrunken log2 fold change
RRIRDRPPRLPRPRPRPWLEPRP | 0.098
RRIRWRPPRLPRPRPRPPYMPRP | -0.16
RRIRERPPRLPRPRPRPVPEPRP | -0.0948
RRIRVRPPRLPRPRPRPFPQPRP | -0.312
RRIRTRPPRLPRPRPRPSWGPRP | -0.179
RRIRIRPPRLPRPRPRPAFQPRP | 0.107
RRIRCRPPRLPRPRPRPLHDPRP | 0.0221
RRIRGRPPRLPRPRPRPCTAPRP | 0.875
RRIRNRPPRLPRPRPRPASCPRP | -0.233
RRIRVRPPRLPRPRPRPLVFPRP | -0.00523
RRIRMRPPRLPRPRPRPYYCPRP | -0.603
RRIRRRPPRLPRPRPRPTAEPRP | -0.0162
RRIRNRPPRLPRPRPRPAFGPRP | -0.189
RRIRGRPPRLPRPRPRPLKWPRP | 0.367
RRIRLRPPRLPRPRPRPQACPRP | 0.00768
RRIRRRPPRLPRPRPRPLTEPRP | 0.793
RRIRYRPPRLPRPRPRPNEEPRP | -0.0952
RRIRSRPPRLPRPRPRPYIIPRP | -0.502
RRIRLRPPRLPRPRPRPMCMPRP | -0.451
RRIRMRPPRLPRPRPRPENGPRP | 0.0676
RRIRGRPPRLPRPRPRPFMQPRP | 0.165
RRIRARPPRLPRPRPRPFYPPRP | -0.104
RRIRTRPPRLPRPRPRPFCTPRP | -0.316
RRIRQRPPRLPRPRPRPIKAPRP | 0.00249
RRIRSRPPRLPRPRPRPKSDPRP | -0.082

Sequence | shrunken log2 fold change
RRIRWRPPRLPRPRPRPHRAPRP | -0.0058
RRIRNRPPRLPRPRPRPLYVPRP | -0.641
RRIRERPPRLPRPRPRPEVEPRP | -0.0864
RRIRIRPPRLPRPRPRPTYAPRP | -0.612
RRIRTRPPRLPRPRPRPLFTPRP | -0.352
RRIRCRPPRLPRPRPRPSPKPRP | -0.326
RRIRCRPPRLPRPRPRPTRVPRP | 0.547
RRIRCRPPRLPRPRPRPNEEPRP | -0.00783
RRIRQRPPRLPRPRPRPKEYPRP | 0.0124
RRIRPRPPRLPRPRPRPFKTPRP | -0.199
RRIRRRPPRLPRPRPRPRFEPRP | 0.582
RRIRMRPPRLPRPRPRPVHSPRP | 0.0125
RRIRKRPPRLPRPRPRPQWQPRP | 0.0827
RRIRTRPPRLPRPRPRPNFEPRP | -0.101
RRIRDRPPRLPRPRPRPAYTPRP | -0.00595
RRIRVRPPRLPRPRPRPAMCPRP | -0.178
RRIRCRPPRLPRPRPRPPDTPRP | 0.269
RRIRWRPPRLPRPRPRPDVCPRP | -0.0101
RRIRQRPPRLPRPRPRPLFKPRP | -0.387
RRIRVRPPRLPRPRPRPCQSPRP | 0.0215
RRIRGRPPRLPRPRPRPSRWPRP | 0.489
RRIRQRPPRLPRPRPRPETVPRP | -0.0886
RRIRARPPRLPRPRPRPWIGPRP | 0.15
RRIRYRPPRLPRPRPRPYQEPRP | -0.00233
RRIRSRPPRLPRPRPRPKIWPRP | 0.141
